The source of these data is patent publication US20190106510A1 (CELLDEX THERAPEUTICS, published 2019).

Positions count from the first letter of the chain named.

The target in test [1] is T1, recombinant KIT D4/D5 (human, UniProt P10721 26-519).
T1 construct: also called recombinant c-Kit Ig-like domains D4/D5; recombinant polypeptide of the D4/D5 region of human KIT
Kind of test: direct binding ELISA, plate-coated recombinant KIT D4/D5; assay #2 (supernatant). As to the method: (§1) The binding affinity of the anti-KIT antibodies to the target antigen KIT Ig-like domains D4/D5 was assessed by direct binding ELISA. […] Bound antibody was detected with anti-human Ig-HRP followed by detection using TMB substrate.

Test [2] has as its target T1, recombinant KIT D4/D5. Kind of test: direct binding ELISA, plate-coated recombinant KIT D4/D5; assay #1 (supernatant). As to the method:
as §1
(In an ELISA, binding on a coated surface is turned into a signal by an enzyme label.)

Test [3] concerns the target T1, recombinant KIT D4/D5. Kind of test: direct binding ELISA, plate-coated recombinant KIT D4/D5; assay #3 (purified). As to the method: as §1
The target of test [4] is full-length, wild-type human KIT expressed on CHO cells (human, UniProt P10721 26-976). Kind of test: cell-based or functional assay.
For test [5], the target named is T1, recombinant KIT D4/D5. In words: direct binding ELISA, plate-coated recombinant KIT D4/D5; assay #4 (purified). As to the method:
as §1

T1 sequence (P10721 other isoform, or with tags, fused parts or gaps limits assumed): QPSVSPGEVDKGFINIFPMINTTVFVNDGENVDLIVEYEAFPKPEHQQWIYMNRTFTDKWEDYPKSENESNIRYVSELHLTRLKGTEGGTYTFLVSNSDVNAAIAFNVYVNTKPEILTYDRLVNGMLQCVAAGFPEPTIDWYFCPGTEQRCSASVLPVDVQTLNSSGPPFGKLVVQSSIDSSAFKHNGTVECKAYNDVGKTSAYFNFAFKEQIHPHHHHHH
Chain of full-length, wild-type human KIT expressed on CHO cells (P10721 other isoform, or with tags, fused parts or gaps limits assumed): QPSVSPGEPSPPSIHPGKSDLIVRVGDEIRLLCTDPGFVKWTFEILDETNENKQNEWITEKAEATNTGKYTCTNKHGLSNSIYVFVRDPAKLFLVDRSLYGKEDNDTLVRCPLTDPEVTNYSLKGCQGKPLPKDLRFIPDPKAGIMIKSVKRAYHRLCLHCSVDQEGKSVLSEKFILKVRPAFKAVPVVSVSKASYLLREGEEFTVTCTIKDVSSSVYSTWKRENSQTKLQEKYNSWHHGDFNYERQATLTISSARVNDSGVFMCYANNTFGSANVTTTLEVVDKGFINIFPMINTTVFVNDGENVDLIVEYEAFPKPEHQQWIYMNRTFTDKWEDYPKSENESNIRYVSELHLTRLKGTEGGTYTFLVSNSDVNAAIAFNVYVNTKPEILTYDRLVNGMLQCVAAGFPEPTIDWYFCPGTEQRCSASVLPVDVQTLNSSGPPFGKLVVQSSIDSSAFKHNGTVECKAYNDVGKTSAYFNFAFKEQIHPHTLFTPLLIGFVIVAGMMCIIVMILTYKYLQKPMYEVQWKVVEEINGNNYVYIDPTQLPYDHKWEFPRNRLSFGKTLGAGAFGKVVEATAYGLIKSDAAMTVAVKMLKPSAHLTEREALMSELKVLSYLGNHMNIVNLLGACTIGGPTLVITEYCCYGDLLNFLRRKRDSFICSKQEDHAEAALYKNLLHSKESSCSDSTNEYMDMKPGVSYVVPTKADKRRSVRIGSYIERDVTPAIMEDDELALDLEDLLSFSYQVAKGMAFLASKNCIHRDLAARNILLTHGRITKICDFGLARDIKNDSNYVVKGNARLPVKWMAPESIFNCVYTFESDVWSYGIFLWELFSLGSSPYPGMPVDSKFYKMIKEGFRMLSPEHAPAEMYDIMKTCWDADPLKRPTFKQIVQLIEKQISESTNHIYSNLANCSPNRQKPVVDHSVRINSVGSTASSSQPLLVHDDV

B1: Hum1 (antibody, V domains shown)
VH: QVQLVQSGAELKKPGASVKLSCKASGYTFTDYYINWVKQAPGKGLEWIARIYPGSGNTYYNEKFKGRATLTAEKSTSTAYMQLSSLRSEDSAVYFCARGVYYFDYWGQGTTVTVSS
VL: DIVMTQSPSFLSASVGDRVTITCKASQNVRTNVAWYQQKPGKAPKALIYSASYRYSGVPDRFTGSGSGTDFTLTISSLQSEDFADYFCQQYNSYPRTFGGGTKVEIK
notes: Variable regions cloned into expression vectors for human IgG1 VH chains and human V kappa chains
In the case of B1, the Relative binding activity with recombinant KIT D4/D5 [1] is 0.64 relative to chimeric antibody 37C (normalized EC50).

B2: Hum5 (antibody, V domains shown)
VH: B1 VH with L11V, L20V, K38R, A68V, L70I, E73D, Q82E, S91T
VL: B1 VL
Take B2: the Relative binding activity with recombinant KIT D4/D5 [1] was 0.93 relative to chimeric antibody 37C (normalized EC50).

B3: Hum15 (antibody, V domains shown)
VH: B1 VH with L11V, L20V, K38R, A68V, L70I, E73D, Q82E, S91T
VL: B1 VL with F10S, T63S, S80P
As for B3, the Relative binding activity with recombinant KIT D4/D5 [2] was 0.87 relative to chimeric antibody 37C (normalized EC50); with recombinant KIT D4/D5 [3], 0.87 relative to chimeric antibody 37C (normalized EC50); with recombinant KIT D4/D5 [1], 0.76 relative to chimeric antibody 37C (normalized EC50). Moreover, in test [4], the “Relative blocking activity, assay #1 (24-well): IC50 of inhibition of SCF-induced KIT phosphorylation, normalized to chimeric 37M antibody” value was 0.98 relative to chimeric 37M antibody. In addition, in test [4], the “Relative blocking activity, assay #3 (96-well): IC50 of inhibition of SCF-induced KIT phosphorylation, normalized to chimeric 37M antibody” value was 0.99 relative to chimeric 37M antibody.

B4: Hum14 (antibody, V domains shown)
VH: B1 VH with L11V, L20V, K38R, L70I, E73D, Q82E, S91T
VL: B1 VL with F10S, T63S, S80P
Turning to B4, the Relative binding activity in the test with recombinant KIT D4/D5 [2] is 1.14 relative to chimeric antibody 37C (normalized EC50); with recombinant KIT D4/D5 [3], 0.74 relative to chimeric antibody 37C (normalized EC50); with recombinant KIT D4/D5 [1], 1.03 relative to chimeric antibody 37C (normalized EC50). The “Relative blocking activity, assay #2 (24-well): IC50 of inhibition of SCF-induced KIT phosphorylation, normalized to chimeric 37M antibody” value in test [4] is 0.94 relative to chimeric 37M antibody.

B5: Hum9 (antibody, V domains shown)
VH: B1 VH with L11V, L20V, K38R, L70I, E73D, Q82E, S91T
VL: B1 VL with F10S, S80P
Regarding B5, the Relative binding activity with recombinant KIT D4/D5 [2] was 1.08 relative to chimeric antibody 37C (normalized EC50); in the test with recombinant KIT D4/D5 [3] it was 0.85 relative to chimeric antibody 37C (normalized EC50); with recombinant KIT D4/D5 [1], 1 relative to chimeric antibody 37C (normalized EC50). Also, in test [4], the “Relative blocking activity, assay #3 (96-well): IC50 of inhibition of SCF-induced KIT phosphorylation, normalized to chimeric 37M antibody” value was 1.05 relative to chimeric 37M antibody.

B6: Hum13 (antibody, V domains shown)
VH: B1 VH with L11V, K38R, E73D, S91T
VL: B1 VL with F10S, T63S, S80P
With B6, the results for the Relative binding activity with recombinant KIT D4/D5 [2] and with recombinant KIT D4/D5 [1] were 1.11 relative to chimeric antibody 37C (normalized EC50) and 0.78 relative to chimeric antibody 37C (normalized EC50), respectively. The “Relative blocking activity, assay #3 (96-well): IC50 of inhibition of SCF-induced KIT phosphorylation, normalized to chimeric 37M antibody” value in test [4] is 1 relative to chimeric 37M antibody.

B7: Hum20 (antibody, V domains shown)
VH: B1 VH with L11V, L20V, K38R, A68V, L70I, E73D, Q82E, S91T
VL: B1 VL with F10S, A46S, T63S, S80P, D85T, F87Y
As for B7, the Relative binding activity was 0.8 relative to chimeric antibody 37C (normalized EC50) in the test with recombinant KIT D4/D5 [2] and 0.7 relative to chimeric antibody 37C (normalized EC50) in the test with recombinant KIT D4/D5 [1].

B8: Hum11 (antibody, V domains shown)
VH: B1 VH
VL: B1 VL with F10S, T63S, S80P
B8: the Relative binding activity with recombinant KIT D4/D5 [1] was 0.74 relative to chimeric antibody 37C (normalized EC50).

B9: Hum19 (antibody, V domains shown)
VH: B1 VH with L11V, L20V, K38R, L70I, E73D, Q82E, S91T
VL: B1 VL with F10S, A46S, T63S, S80P, D85T, F87Y
As for B9, the Relative binding activity was 1.11 relative to chimeric antibody 37C (normalized EC50) with recombinant KIT D4/D5 [2], 0.95 relative to chimeric antibody 37C (normalized EC50) with recombinant KIT D4/D5 [3], 0.85 relative to chimeric antibody 37C (normalized EC50) in the test with recombinant KIT D4/D5 [5] and 1.05 relative to chimeric antibody 37C (normalized EC50) with recombinant KIT D4/D5 [1]. Moreover, the “Relative blocking activity, assay #1 (24-well): IC50 of inhibition of SCF-induced KIT phosphorylation, normalized to chimeric 37M antibody” value in test [4] is 1.09 relative to chimeric 37M antibody. For the same molecule, the “Relative blocking activity, assay #3 (96-well): IC50 of inhibition of SCF-induced KIT phosphorylation, normalized to chimeric 37M antibody” value in test [4] was 0.98 relative to chimeric 37M antibody. Further, the “Relative blocking activity, assay #4 (96-well): IC50 of inhibition of SCF-induced KIT phosphorylation, normalized to chimeric 37M antibody” value in test [4] was 1.4 relative to chimeric 37M antibody.

B10: Hum16 (antibody, V domains shown)
VH: B1 VH
VL: B1 VL with F10S, A46S, T63S, S80P, D85T, F87Y
On to B10, for which the Relative binding activity with recombinant KIT D4/D5 [2] is 1.2 relative to chimeric antibody 37C (normalized EC50); with recombinant KIT D4/D5 [1] it was 1.02 relative to chimeric antibody 37C (normalized EC50).

B11: Hum7 (antibody, V domains shown)
VH: B1 VH with L11V, S91T
VL: B1 VL with F10S, S80P
Consider B11, for which the Relative binding activity is 1.12 relative to chimeric antibody 37C (normalized EC50) with recombinant KIT D4/D5 [2] and 0.8 relative to chimeric antibody 37C (normalized EC50) with recombinant KIT D4/D5 [1].

B12: Hum18 (antibody, V domains shown)
VH: B1 VH with L11V, K38R, E73D, S91T
VL: B1 VL with F10S, A46S, T63S, S80P, D85T, F87Y
As for B12, the Relative binding activity with recombinant KIT D4/D5 [2] is 1.22 relative to chimeric antibody 37C (normalized EC50); in the test with recombinant KIT D4/D5 [3], 0.99 relative to chimeric antibody 37C (normalized EC50); with recombinant KIT D4/D5 [1], 0.79 relative to chimeric antibody 37C (normalized EC50). For the same molecule, the “Relative blocking activity, assay #2 (24-well): IC50 of inhibition of SCF-induced KIT phosphorylation, normalized to chimeric 37M antibody” value in test [4] is 1.22 relative to chimeric 37M antibody.

B13: Hum2 (antibody, V domains shown)
VH: B1 VH with L11V, S91T
VL: B1 VL
Take B13: the Relative binding activity with recombinant KIT D4/D5 [1] was 0.79 relative to chimeric antibody 37C (normalized EC50).

B14: Hum12 (antibody, V domains shown)
VH: B1 VH with L11V, S91T
VL: B1 VL with F10S, T63S, S80P
With B14, the Relative binding activity with recombinant KIT D4/D5 [2] is 1.23 relative to chimeric antibody 37C (normalized EC50); with recombinant KIT D4/D5 [1] it was 0.72 relative to chimeric antibody 37C (normalized EC50).

B15: Hum6 (antibody, V domains shown)
VH: B1 VH
VL: B1 VL with F10S, S80P
B15: the Relative binding activity is 1.15 relative to chimeric antibody 37C (normalized EC50) with recombinant KIT D4/D5 [2] and 0.7 relative to chimeric antibody 37C (normalized EC50) with recombinant KIT D4/D5 [1].

B16: Hum3 (antibody, V domains shown)
VH: B1 VH with L11V, K38R, E73D, S91T
VL: B1 VL
For the molecule B16, the Relative binding activity in the test with recombinant KIT D4/D5 [1] is 0.88 relative to chimeric antibody 37C (normalized EC50).
